The source of these data is IntAct's records for PubMed 16537494.

The labels stand for the following.
B1: Epsin-1 (Saccharomyces cerevisiae), Q12518 (parent)
chain: MSKQFVRSAKNLVKGYSSTQVLVRNATSNDNHQVSKDSLIELAEKSYDSADFFEIMDMLDKRLNDKGKYWRHIAKALTVIDYLIRFGSENCVLWCRENLYIIKTLKEFRHEDDEGIDQGQIVRVKAKELTALLSDDERLNEERNMNIKGRNRKGRRRRGTGRSDENDDDLQRAISASRLTAEEDERRRKQDEDYETALQLSKEEEELKRLQDLQRMQQQQGQQQLQQPMYYDIFGNPITPEEYAQFQLQQQQQQQQQQLQQQPMYYDVFGNPITPEELAQFQQQQQLQEQQYLASMQQQQQAMSNNPFAKSEQSSSSPKRNQLVAASSPQQLQQQKQQEPLIQNRTGNQSMTDKYSKLNELLATGTGIDTFGNVGEARIPAQHTKTGTFINSQGTGYRQVSDDPNHNPFLNSQYTGLPSTSVVPTQTGYGFGNQSQQQSQNNGSNNRGYTLIDL
partner: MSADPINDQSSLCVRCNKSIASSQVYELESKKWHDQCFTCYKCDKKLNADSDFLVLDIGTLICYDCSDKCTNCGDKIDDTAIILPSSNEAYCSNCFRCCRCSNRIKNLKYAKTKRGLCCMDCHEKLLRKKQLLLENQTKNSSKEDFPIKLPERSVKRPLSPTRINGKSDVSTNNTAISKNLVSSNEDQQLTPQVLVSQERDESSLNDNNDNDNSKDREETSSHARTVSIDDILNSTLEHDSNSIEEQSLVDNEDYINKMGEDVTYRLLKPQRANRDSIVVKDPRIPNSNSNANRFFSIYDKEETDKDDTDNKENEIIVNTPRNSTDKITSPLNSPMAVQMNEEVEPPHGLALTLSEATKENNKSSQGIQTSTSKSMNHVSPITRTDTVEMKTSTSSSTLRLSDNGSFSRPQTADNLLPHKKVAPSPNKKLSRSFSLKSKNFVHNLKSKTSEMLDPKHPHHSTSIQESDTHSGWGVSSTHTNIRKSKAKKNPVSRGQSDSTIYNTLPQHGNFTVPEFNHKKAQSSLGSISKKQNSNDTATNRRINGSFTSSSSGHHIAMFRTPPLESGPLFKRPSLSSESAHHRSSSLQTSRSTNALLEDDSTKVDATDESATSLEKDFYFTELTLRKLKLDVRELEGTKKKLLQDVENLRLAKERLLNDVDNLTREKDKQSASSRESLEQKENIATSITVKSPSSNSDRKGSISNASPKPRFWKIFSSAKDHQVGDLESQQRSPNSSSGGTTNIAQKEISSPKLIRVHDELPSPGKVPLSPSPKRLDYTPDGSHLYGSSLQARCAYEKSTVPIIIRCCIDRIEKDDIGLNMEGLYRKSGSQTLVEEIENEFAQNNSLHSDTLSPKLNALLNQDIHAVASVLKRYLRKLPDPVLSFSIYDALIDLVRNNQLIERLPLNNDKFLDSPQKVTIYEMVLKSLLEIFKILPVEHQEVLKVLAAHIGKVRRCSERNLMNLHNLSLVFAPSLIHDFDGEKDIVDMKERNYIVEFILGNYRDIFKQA

Variants of B1 are the subject of the first assay. The following applies: with rga2_yeast RGA2, Q06407.
For the variant T104D, the “effect of a mutation on the interaction” value is recorded as “disrupting interaction strength”.

As for Y100R;T104D, the “effect of a mutation on the interaction” value was “disrupting interaction strength”.

In another assay the parent is B1. As to conditions: with rga2_yeast RGA2, Q06407. The source holds these as a separate data set.
Y100R: the “effect of a mutation on the interaction” value is “disrupting interaction strength”.
